Assay results published in patent US6465618B1, “Mitogen activated protein kinase (MAPK) kinase” (Asahi Kasei Kabushikiki Kaisha, priority 1997, dated 2002).
Residue numbers refer to the chain shown, from its start.

T1: SAPK3 (Mus musculus, UniProt O08911)
T1 construct: His (N); made in house; host or cells: E. coli
T1 sequence (O08911 1-367): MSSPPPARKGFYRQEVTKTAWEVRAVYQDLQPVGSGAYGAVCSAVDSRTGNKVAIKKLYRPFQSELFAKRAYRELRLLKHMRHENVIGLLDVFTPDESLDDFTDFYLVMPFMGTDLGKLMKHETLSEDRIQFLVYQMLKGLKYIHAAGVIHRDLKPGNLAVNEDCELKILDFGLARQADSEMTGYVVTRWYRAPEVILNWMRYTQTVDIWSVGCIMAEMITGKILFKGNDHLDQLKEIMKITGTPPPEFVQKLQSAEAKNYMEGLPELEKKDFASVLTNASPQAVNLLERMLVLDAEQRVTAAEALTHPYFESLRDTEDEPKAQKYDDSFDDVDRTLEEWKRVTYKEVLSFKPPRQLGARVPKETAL

B1: mouse SEK1: known MAPK kinase, mouse SEK1 expressed as GST-SEK1 (protein)
chain: MAAPSPSGGGGSGGGGGTPGPIGPPASGHPAVSSMQGKRKALKLNFANPPVKSTARFTLNPNTTGVQNPHIERLRTHSIESSGKLKISPEQHWDFTAEDLKDLGEIGRGAYGSVNKMVHKPSGQIMAVKRIRSTVDEKEQKQLLMDLDVVMRSSDCPYIVQFYGALFREGDCWICMELMSTSFDKFYKYVYSVLDDVIPEEILGKITLATVKALNHLKENLKIIHRDIKPSNILLDRSGNIKLCDFGISGQLVDSIAKTRDAGCRPYMAPERIDPSASRQGYDVRSDVWSLGITLYELATGRFPYPKWNSVFDQLTQVVKGDPPQLSNSEEREFSPSFINFVNLCLTKDESKRPKYKELLKHPFILMYEERTVEVACYVCKILDQMPATPSSPMYVD
modifications: left off: a dimerising Fc or GST
B2: MKK6: known MAPK kinase, human MKK6 expressed as His-MKK6 (protein)
chain: MSQSKGKKRNPGLKIPKEAFEQPQTSSTPPRDLDSKACISIGNQNFEVKADDLEPIMELGRGAYGVVEKMRHVPSGQIMAVKRIRATVNSQEQKRLLMDLDISMRTVDCPFTVTFYGALFREGDVWICMELMDTSLDKFYKQVIDKGQTIPEDILGKIAVSIVKALEHLHSKLSVIHRDVKPSNVLINALGQVKMCDFGISGYLVDSVAKTIDAGCKPYMAPERINPELNQKGYSVKSDIWSLGITMIELAILRFPYDSWGTPFQQLKQVVEEPSPQLPADKFSAEFVDFTSQCLKKNSKERPTYPELMQHPFFTLHESKGTDVASFVKLILGD
modifications: left off: small tags and cut ends
B3: activated MKK7: human MKK7 (SEQ ID NO: 2) as GST fusion, activated by co-expression with MEKK1 in E. coli (protein)
chain: AASSLEQKLSRLEAKLKQENREARRRIDLNLDISPQRPRPIIVITLSPAPAPSQRAALQLPLANDGGSRSPSSESSPQHPTPPARPRHMLGLPSTLFTPRSMESIEIDQKLQEIMKQTGYLTIGGQRYQAEINDLENLGEMGSGTCGQVWKMRFRKTGHVIAVKQMRRSGNKEENKRILMDLDVVLKSHDCPYIVQCFGTFITNTDVFIAMELMGTCAEKLKKRMQGPIPERILGKMTVAIVKALYYLKEKHGVIHRDVKPSNILLDERGQIKLCDFGISGRLVDSKAKTRSAGCAAYMAPERIDPPDPTKPDYDIRADVWSLGISLVELATGQFPYKNCKTDFEVLTKVLQEEPPLLPGHMGFSGDFQSFVKDCLTKDHRKRPKYNKLLEHSFIKRYETLEVDVASWFKDVMAKTESPRTSGVLSQPHLPFFR
modifications: left off: a dimerising Fc or GST
B4: mouse MKK7: novel MAPK kinase derived from mouse brain, amino acid sequence SEQ ID NO: 4 (protein)
chain: MAASSLEQKLSRLEAKLKQENREARRRIDLNLDISPQRPRPIIVITLSPAPAPSQRAALQLPLANDGGSRSPSSESSPQHPTPPTRPRHMLGLPSTLFTPRSMESIEIDQKLQEIMKQTGYLTIGGQRYQAEINDLENLGEMGSGTCGQVWKMRFRKTGHIIAVKQMRRSGNKEENKRILMDLDVVLKSHDCPYIVQCFGTFITNTDVFIAMELMGTCAEKLKKRMQGPIPERILGKMTVAIVKALYYLKEKHGVIHRDVKPSNILLDERGQIKLCDFGISGRLVDSKAKTRSAGCAAYMAPERIDPPDPTKPDYDIRADVWSLGISLVELATGQFPYKNCKTDFEVLTKVLQEEPPLLPGHMGFSGDFQSFVKDCLTKDHRKRPKYNKLLEHSFIKHYEILEVDVASWFKDVMAKTESPRTSGVLSQHHLPFFSGSLEESPTSPPSPKSFPLSPAIPQAQAEWVSGR
B5: MKK7KL: dominant negative form of mouse MKK7, 165th Lysine (K) substituted with leucine (L), SEQ ID NO: 10 (protein)
chain: B4 chain with K165L

Key:
SAPK3 = target: T1, SAPK3; assay: Activation of MAP kinase by recombinant MAPK kinase in vitro, substrate phosphorylation by autoradiography; assay type: biochemical; details: 0.1 μg MAPK kinase, 0.5 μg His-SAPK3, 30° C. 30 minutes
Experimental: (§1) 0.1 μg of a MAPK kinase (His-MKK7, GST-SEK1 and His-MKK6 were separately used) and 0.5 μg of a MAP kinase (His-MAPK, His-SAPK, His-p38 and His-SAPK3 were separately used), both prepared in item (1) above, were incubated with 10 μl of a solution containing 100 μM ATP, 20 mM MgCl2, 2 mM EGTA and 20 mM Tris-HCl (pH 7.5) at 30° C. for 30 minutes, to thereby activate the MAP kinase. Subsequently, 5 μl of a solution containing a substrate for the MAP kinase and 1 μCi of [γ-^32P] ATP (manufactured and sold by Amersham International, England) was added to the mixture, and further incubated at 20° C. for 20 minutes. As a substrate for the MAP kinase, 3 μg of myelin basic protein (MBP) was used for MAPK and SAPK3, 3 μg of GST-cJun (1-79) was used for SAPK, and 3 μg of ATF-2 was used for p38. The MBP used as the substrate was obtained by purifying Brain Acetone Powder (manufactured and sold by Sigma, USA), and ATF-2 was a kind gift of Dr. Suzanne J. Baker and Dr. Tom Curran (St. Jude Children's Research Hospital). After incubation, a sample was obtained from each incubated mixture and resolved on SDS-polyacrylamide gel electrophoresis. Then, the radioactivity of each of MBP, c-Jun and ATF-2 was detected by autoradiography.

SAPK = target: T2, SAPK (Mus musculus, UniProt Q9WTU6); assay: as above; assay type: biochemical; details: 0.1 μg MAPK kinase, 0.5 μg His-SAPK, 30° C. 30 minutes; substrate GST-cJun (1-79)
T2 construct: His (N); made in house; host or cells: E. coli
Experimental: as §1

p38 = target: T3, p38 (Mus musculus, UniProt P47811); assay: as above; assay type: biochemical; details: 0.1 μg MAPK kinase, 0.5 μg His-p38, 30° C. 30 minutes; substrate ATF-2
T3 construct: His (N); made in house; host or cells: E. coli
T3 sequence (P47811 whole entry): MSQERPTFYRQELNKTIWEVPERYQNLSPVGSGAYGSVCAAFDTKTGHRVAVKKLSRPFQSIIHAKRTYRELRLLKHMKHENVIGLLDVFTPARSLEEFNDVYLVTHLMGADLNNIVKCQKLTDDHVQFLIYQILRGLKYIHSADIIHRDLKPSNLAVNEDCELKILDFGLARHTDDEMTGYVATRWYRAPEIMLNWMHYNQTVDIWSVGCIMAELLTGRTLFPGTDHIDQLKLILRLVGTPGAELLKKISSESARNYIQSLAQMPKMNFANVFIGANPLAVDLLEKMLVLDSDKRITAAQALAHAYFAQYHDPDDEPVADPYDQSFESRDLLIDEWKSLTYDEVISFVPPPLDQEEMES
Experimental: as §1

JNK1 = target: T4, JNK1 (Homo sapiens, UniProt P45983); assay: Activity of activated MKK7 on JNK1, dot hybridization with anti-activated JNK antibody; assay type: biochemical; details: 0.1 μM MKK7, 0.2 μM JNK1, 0.1 mM ATP, 30° C. 2 hours
T4 construct: GST (N); made in house; host or cells: E. coli (GST-MKK7: E. coli DH5α co-transformed with a MEKK1 vector)
T4 sequence (P45983 whole entry): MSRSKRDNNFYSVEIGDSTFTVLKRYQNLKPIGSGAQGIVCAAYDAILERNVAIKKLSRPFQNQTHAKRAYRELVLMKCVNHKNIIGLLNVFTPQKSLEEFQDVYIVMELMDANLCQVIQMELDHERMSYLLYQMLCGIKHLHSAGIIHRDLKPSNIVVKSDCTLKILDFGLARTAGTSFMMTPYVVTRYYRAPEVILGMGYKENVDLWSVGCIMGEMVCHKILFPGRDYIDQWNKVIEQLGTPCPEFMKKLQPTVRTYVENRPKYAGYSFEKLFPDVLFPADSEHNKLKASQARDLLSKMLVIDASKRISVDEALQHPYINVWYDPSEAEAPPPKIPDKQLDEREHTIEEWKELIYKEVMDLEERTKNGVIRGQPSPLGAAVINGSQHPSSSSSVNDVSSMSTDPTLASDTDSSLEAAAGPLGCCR
Experimental: In order to screen an inhibitor of MKK7, a completely activated MKK7 was prepared as follows. Illustratively stated, as an activation factor for MKK7, MEKK1 which is suspected to exist in the upstream of MKK7 and activate MKK7, was used. A commercially available MEKK1 gene (manufactured and sold by Stratagene Cloning Systems, USA) was inserted into an E. coli expression vector in which the origin of replication (ori) is p15A, to thereby prepare recombinant MEKK1 vector. The whole DNA of human MKK7 was inserted into vector pGEX-4T1 (manufactured and sold by Pharmacia Biotech AB, Sweden), to thereby prepare recombinant GST-MKK7 vector. Two recombinant expression vectors prepared above were co-transformed into E. coli DH5α to thereby obtain an activated GST-MKK7, and the activated GST-MKK7 was purified from E. coli using Glutathione-Sepharose 4B column (manufactured and sold by Pharmacia Biotech AB, Sweden).
A gene encoding human JNK1 was inserted into vector pGEX-4T1, thereby preparing recombinant GST-JNK1 vector, and the prepared recombinant vector was transformed into and expressed in E. coli. GST-JNK1 was purified from the transformants using Glutathione-Sepharose 4B column (manufactured and sold by Pharmacia Biotech AB, Sweden). […]
Using the activated MKK7 and JNK1 obtained above, the activity of MKK7 was determined in the following manner. […]

[1] = Optimum pH and heat deactivation of MKK7; assay type: physicochemical
Experimental: In addition to MKK7, MKK6 and SEK1 were used as the MAPK kinase, and MAPK, SAPK, p38 and SAPK3 were used as the MAP kinase. A MAPK kinase gene and a MAP kinase gene were cotransfected to a cell in different combinations, and the activity of the MAP kinase in vivo was determined by measuring the amount of a substrate (for the transfected MAP kinase) phosphorylated by the cotransfected cells. […] From this experiment, it has become apparent that the optimum pH for MKK7 is in the range of from pH 7 to 8, and MKK7 is deactivated at 70° C. or higher.

SAPK/JNK = assay: Inhibition of TNF-α-induced SAPK activation by the dominant negative form of MKK7 in KB cells; details: KB cells cotransfected with pSRα-HA-SAPKα and pSRα-MKK7KL; TNF-α 100 ng/ml, 15 minutes; sorbitol- and anisomycin-induced activation not suppressed
Experimental: KB cells were cotransfected with the vector pSRα-HA-SAPKα (0.5 μg) and either the vector pSRα or the vector pSRα-MKK7KL (1.5 μg) using Lipofectamine (manufactured and sold under the brand of GIBCO BRL, USA). Twenty-four hours after the transfection, TNF-α (100 ng/ml), sorbitol (0.5 M) and anisomycin (100 μg/ml) were individually used to stimulate the transfected cells for 15 minutes. Next, the cell extracts of the stimulated cells were individually prepared as follows. The cells were suspended in 0.7 M NaCl solution and washed once with ice-cold HEPES-buffered saline. Subsequently, the washed cells were homogenized in a buffer containing 20 mM Tris-HCl (pH 7.5), 2 mM EGTA, 25 mM β-glycerophosphate, 2 mM DTT, 1 mM vanadate, 1 mM PMSF and 1% aprotinin, wherein the buffer was used in an amount of 300 μl relative to cells obtained per plate (diameter: 100 mm). The resultant cell homogenate was centrifuged at 1000×g for 3 minutes, followed by a further centrifugation at 400,000×g for 20 minutes, thereby obtaining a supernatant. The obtained supernatant was used as the cell extract.
Each of the cell extracts was individually immunoprecipitated with anti-HA antibody (anti-hemagglutinin antibody) (12CA5), and the kinase activity of HA-SAPK in the immunoprecipitate was determined.

Row | Molecule | activation of SAPK3 (phosphorylation of MBP) (SAPK3) | activation of SAPK (phosphorylation of c-Jun) (SAPK) | activation of p38 (phosphorylation of ATF-2) (p38) | activity of MKK7 (presence of activated JNK1) (JNK1) | optimum pH [1] [pH] | temperature at which MKK7 is deactivated [1] [°C] | TNF-α-induced activation of SAPK/JNK in a cell expressing MKK7KL (SAPK/JNK)
1 | B1 | activated | activated | activated |  |  |  | 
2 | B2 | activated | did not activate | activated |  |  |  | 
3 | B3 |  |  |  | confirmed |  |  | 
4 | B4 | did not activate | specifically activated | did not activate |  | 7 to 8 | ≥ 70 | 
5 | B5 |  |  |  |  |  |  | suppressed
